T1: hIL2Rg ECD antigen (human, UniProt P31785 23-262)
T1 construct: The immunogen was the ECD fused to human IgG1 hinge and Fc; also called ECD of IL2Rg (human); human IL-2Rγ
T1 sequence: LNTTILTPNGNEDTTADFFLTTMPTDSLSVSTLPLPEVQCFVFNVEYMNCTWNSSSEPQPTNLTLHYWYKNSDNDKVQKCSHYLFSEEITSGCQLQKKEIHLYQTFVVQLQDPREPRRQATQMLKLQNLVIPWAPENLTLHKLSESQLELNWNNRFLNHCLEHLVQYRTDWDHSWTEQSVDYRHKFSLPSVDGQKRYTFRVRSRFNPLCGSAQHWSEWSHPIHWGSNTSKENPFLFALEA

T2: mIL2Rg ECD antigen (murine, UniProt P34902 23-263)
T2 construct: The immunogen was the ECD fused to human IgG1 hinge and Fc; also called ECD of IL2Rg (mouse)
T2 sequence: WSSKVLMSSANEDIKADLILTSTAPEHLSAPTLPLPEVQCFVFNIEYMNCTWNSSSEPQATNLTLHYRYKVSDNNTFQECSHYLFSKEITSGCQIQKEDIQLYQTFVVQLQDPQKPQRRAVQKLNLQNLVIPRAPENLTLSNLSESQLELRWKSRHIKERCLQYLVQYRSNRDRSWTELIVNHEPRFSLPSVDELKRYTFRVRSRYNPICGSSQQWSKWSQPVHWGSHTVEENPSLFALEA

B1: hIL2Rg_VHH-9 (VHH)
VHH: QVQLQESGGGSVQAGGSLRLSCTASGFTFDDSDMGWYRQAPGGECELVTISSDGSTYYADSVKGRFTISQDNAKNTVYLQMNSLKPEDTAVYYCAAEPRGYYSNYGGRRECNYWGQGTQVTVSS
notes: As a his-tagged phage clone periplasmic extract
B2: hIL2Rg_VHH-14 (VHH)
VHH: QVQLQESGGGSVQAGGSLKLSCTVSGFTADDSDMGWYRQGPGNECELVTISSDGSTYYADSVKGRFTISQDNAKNTVYLQMNSLKPEDTAVYYCAAEPRGYYSNYGGRRECNYWGQGTQVTVSS
notes: as for B1
B3: hIL2Rg_VHH-17 (VHH)
VHH: QVQLQESGGGLVQPGGSLRLSCAASGFTFSNAHMSWVRQAPGKGREWISSIYSGGSTWYADSVKGRFTISRDNSKNTLYLQLNSLKTEDTAMYYCAENRLHYYSDDDSLRGQGTQVTVSS
notes: as for B1
B4: hIL2Rg_VHH-11 (VHH)
VHH: QVQLQESGGGSVQAGGSLRLSCAASGFTFSSAHMSWVRQAPGKGREWIASIYSGGGTFYADSVKGRFTISRDNAKNTLYLQLNSLKTEDTAMYYCATNRLHYYSDDDSLRGQGTQVTVSS
notes: as for B1
B5: hIL2Rg_VHH-12 (VHH)
VHH: QVQLQESGGGSVQAGGSLRLSCAASGFTFSNAHMSWVRQAPGKGREWISSIYSGGSTWYADSVKGRFTISRDNSKNTLYLQLNSLKTEDTAMYYCAENRLHYYSDDDSLRGQGTQVTVSS
notes: as for B1
B6: hIL2Rg_VHH-16 (VHH)
VHH: QVQLQESGGGLVQPGGSLRLSCVASGFTFSNAHMSWVRQAPGKGREWISSIYSGGSTWYADSVKGRFTISRDNSKNTLYLQLNSLKTEDTAMYYCAENRLHYYSDDDSLRGQGTQVTVSS
notes: as for B1
B7: hIL2Rg_VHH-6 (VHH)
VHH: QVQLQESGGGAVQAGGSLRLSCAASGFTFSNAHMSWVRQAPGKGREWISSIYSGGSTWYADSVKGRFTISRDNSKNTLYLQLNSLKTEDTAMYYCAENRLHYYSDDDSLRGQGTQVTVSS
notes: as for B1
B8: hIL2Rg_VHH-4 (VHH)
VHH: QVQLQESGGGSVQAGGSLRLSCTASGFTFDDSDMGWYRQAPGNECELVSTISSDGNTYYTDSVKGRFTISQDNAKNTVYLQMNSLGPEDTAVYYCAAEPRGYYSNYGGRRECNYWGQGTQVTVSS
notes: as for B1
B9: hIL2Rg_VHH-13 (VHH)
VHH: QVQLQESGGGSVQAGGSLRLSCTASRFIFDDSDMGWYRQAPGNECELVSTISSDGSTYYADSVKGRFTISRDNAKNTVYLQMNSLKPEDTAVYYCAAEPRGYYSNYGGRRECNYWGQGTQVTVSS
notes: as for B1
B10: hIL2Rg_VHH-10 (VHH)
VHH: QVQLQESGGGSVQAGGSLRLSCAASGSIYSSAYIGWFRQAPGKKREGVAGIYTRDGSTAYADSVKGRFTISQDSAKKTVYLQMNSLKPEDTAMYYCAAGRRTKSYVYIFRPEEYNYWGQGTQVTVSS
notes: as for B1
B11: hIL2Rg_VHH-2 (VHH)
VHH: QVQLQESGGGSVPAGGSLKLSCAASGFSFSSYPMTWARQAPGKGLEWVSTIASDGGSTAYAASVEGRFTISRDNAKSTLYLQLNSLKTEDTAMYYCTKGYGDGTPAPGQGTQVTVSS
notes: as for B1
B12: hIL2Rg_VHH-5 (VHH)
VHH: QVQLQESGGGSVQAGGSLRLSCAASGFSFSSYPMTWARQAPGKGLEWVSTIASDGGSTAYAASVEGRFTISRDNAKSTLYLQLNSLKTEDTAMYYCTKGYGDGTPAPGQGTQVTVSS
notes: as for B1
B13: hIL2Rg_VHH-18 (VHH)
VHH: QVQLQESGGGLVQPGGSLRLSCAASGFTFSSYPMTWARQAPGKGLEWVSTIASDGGSTAYAASVEGRFTISRDNAKSTLYLQLNSLKTEDTAMYYCTKGYGDGTPAPGQGTQVTVSS
notes: as for B1
B14: mIL2Rg_VHH5 (VHH)
VHH: QVQLQESGGGSVQAGGSLRLSCVASGDVYGRNSMAWFRQAPGKEREGVAVGYSVVTTTYYADSVKGRFTISEDNDKNTVYLEMNSLKPEDTAMYYCAADGNLWRGLRPSEYTYWGQGTQVTVSS
notes: as for B1
B15: mIL2Rg_VHH7 (VHH)
VHH: QVQLQESGGGLVQPGGSLRLSCTVSGFTFDESDMGWLRQNPGNECGVVSVITSDDNPYYDDSVKGRFTISEDNAKNMVYLQMNSLKPEDTGVYYCATRSRQPVYSRDYELRPRPLCGDFGVWGQGTQVTVSS
notes: as for B1
B16: mIL2Rg_VHH6 (VHH)
VHH: QVQLQESGGGSVQAGGSLRLSCATSGFPYSRYCMGWFRQAPGKEREGVAAIEPDGSTSYADSVKGRFTISQDNAVNTLYLQMNNLKPEDTAMYYCAADERCFYLKDYDLRRPAQYRYWGQGTQVTVSS
notes: as for B1
B17: mIL2Rg_VHH12 (VHH)
VHH: QVQLQESGGGSVLAGGSLRLSCVASGYGYNYIGWFRQTPGKEREGVAVIYIGGGDTYYADSVKGRFTASRDNAKSTLYLQMNSLEPEDTAMYYCVARYCVGSVYACLRGGHDEYAHWGQGTQVTVSS
notes: as for B1
B18: mIL2Rg_VHH13 (VHH)
VHH: QVQLQESGGGSVLAGGSLRLSCVASGYGYNYIGWFRQTPGKEREGVAVIYTGGGDTYYADSVKGRFTASRDNAKSTLYLQMNSLEPEDTAMYYCVARYCVGSVYACLRGGHDEYAHWGQGTQVTVSS
notes: as for B1
B19: mIL2Rg_VHH9 (VHH)
VHH: QVQLQESGGGSVQAGGSLRLSCAASGFTFDDFDMGWYRQAPGNECELVSTISDDGSTYYADSVKGRSSISRDNAKNTVYLQMNSLKPEDTAVYYCAAEGALGSKTNCGWVGNFGYWGQGTQVTVSS
notes: as for B1
B20: mIL2Rg_VHH14 (VHH)
VHH: QVQLQESGGGSVQAGGSLRLSCAASGFTFDDFDMGWYRQAPGNECELVSTISDDGSTYYANSVKGRSSISRDNAKNMVYLQMNSLKPEDTAVYYCAAEGALGSKTNCGWVGNFGYWGQGTQVTVSS
notes: as for B1
B21: mIL2Rg_VHH11 (VHH)
VHH: QVQLQESGGGLVQPGGSLKLSCAASGFTFSDRDMGWYRQAPGNECERVSTISDDGSTYYADSVKGRSSISRDNAKNTVYLQMNSLKPEDTAVYYCAAEGALGSKTNCGWVGNFGYWGQGTQVTVSS
notes: as for B1
B22: mIL2Rg_VHH15 (VHH)
VHH: QVQLQESGGGSVQAGGSLRLSCTASGFTFDDFDMGWYRQAPGNECELVSTISDDGSTYYADSVKGRSSISRDNAKNTVYLQMNRLKPEDTGVYYCAAEGALGSKMNCGWVGNFGYWGQGTQVTVSS
notes: as for B1
B23: mIL2Rg_VHH10 (VHH)
VHH: QVQLQESGGGLVQPGGSLRLSCAASGFTFDDFDMGWYRQAPGNECELVSTISDDGSTYYADSVKGRSSISRDNAKSTVYLQMNRLKPEDTGVYYCAAEGALGSKTNCGWVGNFGYWGQGTQVTVSS
notes: as for B1
B24: mIL2Rg_VHH8 (VHH)
VHH: QVQLQESGGGSVQAGGSLRLSCTASGFTFDDFDMGWYRQAPGNECELVSTISDDGSTYYADSVKGRSSISRDNAKNTVYLQMNRLKPEDTGVYYCAAEGALGSKTNCGWVGNFGYWGQGTQVTVSS
notes: as for B1
B25: mIL2Rg_VHH4 (VHH)
VHH: QVQLQESGGGSVQAGGSLRLSCIGSGLPFDEDDMGWYRQAPGNECELVSSISSDGTAYYADSVKGRFTISRDNAKNTVLLQMNSLKPEDTAVYYCAAGVHRQFGGSSSCGDAFYGMDYWGKGTQVTVSS
notes: as for B1
B26: mIL2Rg_VHH2 (VHH)
VHH: QVQLQESGGGSVQPGGSLRLSCAASGSTYANYLMGWFRQAPGKEREGVAAIYSGGGSTYYADSVKGRFTISQDNAKNTLYLQMNSLKPEDTAMYYCAAASAVKGDKGDIVVVVTGTQRMEYDYWGHGTQVTVSS
notes: as for B1
B27: mIL2Rg_VHH3 (VHH)
VHH: QVQLQESGGGSVQAGASLRLSCSVSGFTFDESVMSWLRQGPGNECDAVAIISSDDNTYYDDSVKGRFTISEDNAKNMVYLQMNSLKPEDTAVYYCAARRRRPVYDSDYELRPRPLCGDFGVWGQGTQVTVSS
notes: as for B1

In one test the target is T1, hIL2Rg ECD antigen. Nature of the test: PE-ELISA of phage clones. (In general: An ELISA detects its analyte on a solid surface through an enzyme-linked reagent.)
Turning to B1, the binding result is “binds”. In the case of B2, the binding result is given as “binds”. Take B3: the binding result is listed as “binds”.

B4: the binding result is “binds”. As for B5, the binding result is “binds”.

Turning to B6, the binding result is listed as “binds”. Regarding B7, the binding result is given as “binds”.

As for B8, the binding result is recorded as “binds”. Take B9: the binding result is “binds”.

Turning to B10, the binding result is given as “binds”. For the molecule B11, the binding result is on record as “binds”. For the molecule B12, the binding result is listed as “binds”.

Turning to B13, the binding result was “binds”.

The next test deals with T2, mIL2Rg ECD antigen. Nature of the test: PE-ELISA of phage clones.
Consider B14, for which the binding result is “binds”. For the molecule B15, the binding result is recorded as “binds”. Take B16: the binding result was “binds”. Consider B17, for which the binding result is reported as “binds”.

For the molecule B18, the binding result is “binds”. B19: the binding result is on record as “binds”. B20: the binding result is “binds”.

As to B21, the binding result was “binds”. Same read-out and setting: next, B22: “binds”. On to B23, for which the binding result is listed as “binds”. The same measure, in the same setting: next, B24: “binds”; B25: “binds”; B26: “binds”. As to B27, the binding result was “binds”.
